{"source": "patent US20090016988", "key": {"[1]": {"system": "MPPT4 (proaerolysin with the activation sequence KVRRAR changed to the MMP2 site HPVGLLAR, 6xHis tag)"}, "[2]": {"system": "MPPT5 (proaerolysin with the MMP2 site HPVGLLAR joined by a GG linker to the uPA site SGRSAQ in the)"}, "[3]": {"system": "wild-type proaerolysin from Aeromonas hydrophila"}, "[4]": {"system": "MPPT1 (proaerolysin with the furin site KVRRAR replaced by the uPA site SGRSAQ, and a His tag)"}}}
{"substance": "active MMP2 protease (EMD/Calbiochem)", "values": [{"measurement": "digestion with MMP2 (Western blot, 48 hour incubation samples)", "setting": "[1]", "value": "complete digestion for MPPT4"}, {"measurement": "digestion with MMP2, 24 hours (silver stained SDS-PAGE)", "setting": "[1]", "value": "complete digestion for MPPT4 for all concentrations shown"}, {"measurement": "Hemolytic titer after MMP2 digestion (hemolytic titer (wells with lysed cells))", "setting": "[2]", "value": 6.5}, {"measurement": "Hemolytic titer after MMP2 digestion (hemolytic titer (wells with lysed cells))", "setting": "[3]", "value": 0}, {"measurement": "digestion with MMP2 (Western blot, 48 hour incubation samples)", "setting": "[3]", "value": "less than 50% digestion for PA"}, {"measurement": "digestion with MMP2, 2 hours (silver stained SDS-PAGE)", "setting": "[3]", "value": "PA is not measurably affected by MMP2"}, {"measurement": "digestion with MMP2, 24 hours (silver stained SDS-PAGE)", "setting": "[3]", "value": "a small amount of digestion for PA"}]}
{"substance": "urokinase-type plasminogen activator (uPA)", "values": [{"measurement": "Hemolytic titer after uPA digestion (hemolytic titer (wells with lysed cells))", "setting": "[2]", "value": 7}, {"measurement": "Hemolytic titer after uPA digestion (hemolytic titer (wells with lysed cells))", "setting": "[3]", "value": 5}, {"measurement": "Hemolytic titer, 0.016 mg/mL uPA (hemolytic titer (wells with lysed cells))", "setting": "[3]", "value": 0}, {"measurement": "Hemolytic titer, 0.04 mg/mL uPA (hemolytic titer (wells with lysed cells))", "setting": "[3]", "value": 2.5}, {"measurement": "Hemolytic titer, 0.08 mg/mL uPA (hemolytic titer (wells with lysed cells))", "setting": "[3]", "value": 6}, {"measurement": "activation by uPA digestion (Coomassie stained SDS-PAGE)", "setting": "[3]", "value": "No activated aerolysin band, and only a very faint high molecular weight oligomer band, was seen for the PA sample digested with 1 µg of uPA"}, {"measurement": "conversion to aerolysin by 0.016 mg/mL uPA (SDS-PAGE)", "setting": "[3]", "value": "No PA was converted to aerolysin when treated with 0.016 mg/mL uPA under these conditions"}, {"measurement": "digestion with uPA, 2 hours (silver stained SDS-PAGE)", "setting": "[3]", "value": "it is somewhat sensitive to uPA, though not to the degree seen for MPPT5"}, {"measurement": "digestion with uPA, 120 minutes (Coomassie stained SDS-PAGE)", "setting": "[3]", "value": "whereas much less PA was activated"}, {"measurement": "Hemolytic titer, 0.016 mg/mL uPA (hemolytic titer (wells with lysed cells))", "setting": "[4]", "value": 6}, {"measurement": "Hemolytic titer, 0.04 mg/mL uPA (hemolytic titer (wells with lysed cells))", "setting": "[4]", "value": 7.5}, {"measurement": "Hemolytic titer, 0.08 mg/mL uPA (hemolytic titer (wells with lysed cells))", "setting": "[4]", "value": 7.5}, {"measurement": "activation by uPA digestion (Coomassie stained SDS-PAGE)", "setting": "[4]", "value": "the MPPT1 sample digested with 1 µg of uPA showed an activated aerolysin band (˜48 kDa; lowest band), and a high molecular weight oligomer band"}, {"measurement": "conversion to aerolysin by 0.016 mg/mL uPA (SDS-PAGE)", "setting": "[4]", "value": "MPPT1 was nearly 50% converted"}, {"measurement": "digestion with uPA, 120 minutes (Coomassie stained SDS-PAGE)", "setting": "[4]", "value": "After 120 minutes, the MPPT1 is almost completely activated by 0.04 mg/mL uPA"}]}
